Data: article PMC9959518, “Influence of the Drug Position on Bioactivity in Angiopep-2—Daunomycin Conjugates” (International Journal of Molecular Sciences, 2023)

Key:
[1] = tested on: U87 human glioblastoma cells; experiment: In vitro cellular uptake by flow cytometry; format: cell-based; conditions: 50 µM
Protocol: The in vitro cytostatic effect of any peptide–drug conjugate is influenced by many factors. One of the main effects is the cellular uptake of the conjugates by cells. Therefore, we compared the cellular uptake of the different conjugates on U87 glioblastoma cells. The cells were incubated with the conjugates (2, 10, and 50 µM) for 1 h. Then, after a washing step, the cells were treated with trypsin to remove the cell surface-bound conjugates and other cell surface structures that enable non-specific binding, so only the quantity of the conjugates actually entering the cells was detected by flow cytometry. […] The cellular uptake of the conjugates was concentration-dependent. […]
U87 cells were plated into 24-well tissue culturing plates with the initial cell number of 10^5 cells/well 24 h before the experiment. […] Data were recorded for 5000–10,000 cells at λex = 488 nm. The fluorescence mean was calculated. Daunomycin-positive cells were also gated from the living cell population, and the percentage of daunomycin-containing cells was calculated. The gating was determined from the untreated control cell count/fluorescence intensity histogram by adjusting the lowest fluorescence intensity value of the gated cells to the highest fluorescence intensity value of the live population of untreated control cells. Cells showing fluorescence intensities above this were considered as Dau-positive. […]

[2] = tested on: U87 human glioblastoma cells; format: cell-based; conditions: MTT test, 0.05–50 µM, treated 24 h (method: overnight), washed, further 48 h (method: 72 h) at 37 °C, two independent experiments with four parallel measurements
Protocol: The in vitro cytostatic effect of the synthesized peptide (1) and daunomycin-peptide conjugates (2–8) was investigated on U87 human glioblastoma cells. The cells were treated with the peptide and conjugates at different concentrations (0.05–50 μM) for 24 h, and after a washing step, the cells were incubated for another […] at 37 °C. The cytostatic effect of the compounds was determined using the MTT test.
U87 human glioblastoma cell line was cultured in DMEM supplemented with 10% FBS, 2 mM L-glutamine, penicillin–streptomycin antibiotic mixture (50 IU/mL and 50 μg/mL, respectively), 1 mM sodium pyruvate, and 1% non-essential amino acid mixture. The cell culture was maintained at 37 °C in a humidified atmosphere with 5% CO2. The U87 cell line was a generous gift of Dr. József Tóvári (Department of Experimental Pharmacology, National Institute of Oncology, Budapest, Hungary).
For determining the cytostatic effect of the conjugates, U87 cells were grown to confluency and then divided into 96-well tissue culture plates with an initial cell number of 5.0 × 10^3 cells/well. After 24 h incubation at 37 °C, the cells were treated with the compounds overnight in the concentration range of 0.05–50 μM in 200 μL final volume containing 1.0 v/v% DMSO, whereas control cells were treated only with serum-free medium or with 1.0 v/v% DMSO at the same conditions. After the incubation, cells were washed twice with serum-free medium, then the cells were cultured for an additional 72 h in 10% serum-containing medium at 37 °C. Following that, MTT solution (at c = 0.37 mg/mL final concentration) was added to each well. The respiratory chain [32] and other electron transport systems reduced MTT and thereby formed non-water-soluble violet formazan crystals within the cells. The amount of these crystals can be determined by spectrophotometry and serves as an estimate for the number of mitochondria in addition to the number of living cells in the well [35]. After 3 h of incubation with MTT, the cells were centrifuged for 5 min at 2000 rpm and the supernatant was removed. The obtained formazan crystals were dissolved in DMSO (100 µL), and the optical density (OD) of the samples was measured at λ = 540 nm and 620 nm, respectively, using ELISA Reader (iEMS Reader, Labsystems, Finland). The OD620 values were subtracted from the OD540 values. The percent of cytostasis was calculated with the following equation:(1) Cytostatic effect (%)=1−ODtreated/ODcontrol×100 where the ODtreated and ODcontrol values correspond to the optical densities of the treated and the control wells, respectively. In each case, two independent experiments were carried out with four parallel measurements. Cytostasis was plotted as a function of concentration, and the half-maximal inhibitory concentration was calculated based on a sigmoid curve fitted on the data points using Microcal™ Origin 2018 software. IC50 represents the concentration of a compound that is required for 50% inhibition, expressed in micromolar units.

[3] = Degradation in rat liver lysosomal homogenate followed by HPLC-MS; format: in vitro ADME; conditions: pH 5.03, 37 °C
Protocol: The conjugates were treated with lysosomal homogenate for 5 min, 1 h, 6 h, 24 h, and 72 h, and the degradation was followed by HPLC-MS. Control studies investigating conjugates in buffer (without lysosomal homogenate) were also performed, and for these, all conjugates were stable. […] At 6 h, it was the main drug-containing metabolite, and at 72 h, only this Dau-containing fragment could be detected. This time-dependent pattern was also observed in the case of conjugate 2, where Dau was attached to the side chain of Lys in position 15, and the formed smallest metabolite was H-Lys(Dau=Aoa)-OH. […] It is likely that, in this case, a large steric hindrance occurred, and the enzymes were not able to access the peptide bonds around ^10Lys. This observation might explain the discrepancy between the efficient cellular uptake and the lower anticancer activity of this conjugate.
A stock solution with a concentration of 2.5 μg/μL was prepared from the conjugates in distilled water, and this was diluted 100× with 0.2 M sodium acetate buffer (pH 5.03). The rat liver lysosomal homogenate (16.6 μg/μL) was diluted 20× with the same buffer, and then the two solutions were mixed in a 1:1 (protein:peptide, m/m) ratio. In each case, control measurements were also performed, in which buffer was added to the conjugates instead of the lysosomal homogenate. The solutions were stirred at 600 rpm at 37 °C in a thermostat (ThermoMixer, Eppendorf AG, Hamburg, Germany), and after 5 min, 1 h, 6 h, 24 h, and 72 h, 50 μL samples were taken. Each reaction was quenched with 5 μL formic acid and the samples were stored frozen until analysis.
The HPLC-MS analysis of the samples was performed with a Dionex 3000 HPLC-Q Exactive Focus hybrid quadrupole-orbitrap mass spectrometer (Thermo Fisher Scientific, Bremen, Germany). For separation, a Supelco Ascentis C18 column (3 μm, 100 Å, 150 × 2.1 mm; Merck, Darmstadt, Germany) and gradient elution (0 min 2% B, 1 min 2% B, 17 min 90% B; A eluent: 0.1% formic acid/distilled water, eluent B: 0.1% formic acid/acetonitrile + distilled water (80:20, v/v%), flow rate 0.2 mL/min, 40 °C) was used, and high-resolution mass spectra were recorded in the range of 200–1800 m/z. The data were analyzed using the Xcalibur program (Thermo Fisher Scientific).

Row | Compound | toxicity observed during the cellular uptake measurement (live cells in % of untreated control) [1] | IC50 [2] [µM] | release of Dau=Aoa-Gly-OH (in words) [3]
1 | COc1cccc2c1C(=O)c1c(O)c3c(c(O)c1C2=O)C[C@@](O)(C(C)=NOCC(=O)NCCCC[C@H](NC(=O)CNC(=O)[C@H](CCCNC(=N)N)NC(=O)[C@H](CO)NC(=O)CNC(=O)CNC(=O)[C@H](Cc1ccc(O)cc1)NC(=O)[C@H](Cc1ccccc1)NC(=O)[C@H](Cc1ccccc1)NC(=O)[C@@H](NC(=O)CON=C(C)[C@]1(O)Cc2c(O)c4c(c(O)c2[C@@H](O[C@H]2C[C@H](N)[C@H](O)[C@H](C)O2)C1)C(=O)c1c(OC)cccc1C4=O)[C@@H](C)O)C(=O)N[C@@H](CCCNC(=N)N)C(=O)N[C@@H](CC(N)=O)C(=O)N[C@@H](CC(N)=O)C(=O)N[C@@H](Cc1ccccc1)C(=O)N[C@@H](CCCCN)C(=O)N[C@H](C(=O)N[C@@H](CCC(=O)O)C(=O)N[C@@H](CCC(=O)O)C(=O)N[C@@H](Cc1ccc(O)cc1)C(=O)O)[C@@H](C)O)C[C@@H]3O[C@H]1C[C@H](N)[C@H](O)[C@H](C)O1 [compound 7, Dau=Aoa-TFFYGGSRGK(Dau=Aoa)RNNFKTEEY-OH] | slight toxicity | 7.8 ± 6.3 | –
2 | COc1cccc2c1C(=O)c1c(O)c3c(c(O)c1C2=O)C[C@@](O)(C(C)=NOCC(=O)NCC(=O)N[C@@H](Cc1ccccc1)C(=O)N[C@@H](CC(C)C)C(=O)NCC(=O)NCCCC[C@H](NC(=O)CNC(=O)[C@H](CCCNC(=N)N)NC(=O)[C@H](CO)NC(=O)CNC(=O)CNC(=O)[C@H](Cc1ccc(O)cc1)NC(=O)[C@H](Cc1ccccc1)NC(=O)[C@H](Cc1ccccc1)NC(=O)[C@@H](N)[C@@H](C)O)C(=O)N[C@@H](CCCNC(=N)N)C(=O)N[C@@H](CC(N)=O)C(=O)N[C@@H](CC(N)=O)C(=O)N[C@@H](Cc1ccccc1)C(=O)N[C@@H](CCCCN)C(=O)N[C@H](C(=O)N[C@@H](CCC(=O)O)C(=O)N[C@@H](CCC(=O)O)C(=O)N[C@@H](Cc1ccc(O)cc1)C(=O)O)[C@@H](C)O)C[C@@H]3O[C@H]1C[C@H](N)[C@H](O)[C@H](C)O1 [compound 9, H-TFFYGGSRGK(Dau=Aoa-GFLG)RNNFKTEEY-OH] | slight toxicity | 16.9 ± 5.6 | particularly slow
